Reference: article PMC10696418
Where two headings read alike, the source gives them in different places.

Experiments:
Test in all cases: SPR
[1] = molecular target: wild-type CRIg Ig V domain, His-tagged (human) (UniProt Q9Y279)
[2] = molecular target: CRIg-Mut-1 (CRIg Ig V domain mutant K15R/K36R/K62R/K72R/K110R), His-tagged (human)
[3] = molecular target: wild-type CRIg Ig V domain, His-tagged (human) (UniProt Q9Y279); remark: listed apart in the source
[4] = molecular target: CRIg-Mut-2 (CRIg Ig V domain mutant K15R/K36R/K62Q/K72R/K110R), His-tagged (human)

Row | Ka-1 (two-state model, first step, association rate) [1] [M⁻¹ s⁻¹] | Ka-2 (two-state model, second step, forward rate) [1] [s⁻¹] | Kd [1] [nM] | Kd-1 (two-state model, first step, dissociation rate) [1] [s⁻¹] | Kd-2 (two-state model, second step, reverse rate) [1] [s⁻¹] | Kd [2] [nM] | Kd [3] [nM] | Kd [4] [nM] | Ka-1 (two-state model, first step, association rate) [2] [M⁻¹ s⁻¹] | Ka-2 (two-state model, second step, forward rate) [2] [s⁻¹] | Kd-1 (two-state model, first step, dissociation rate) [2] [s⁻¹] | Kd-2 (two-state model, second step, reverse rate) [2] [s⁻¹] | Ka-1 (two-state model, first step, association rate) [4] [M⁻¹ s⁻¹] | Ka-2 (two-state model, second step, forward rate) [4] [s⁻¹] | Kd-1 (two-state model, first step, dissociation rate) [4] [s⁻¹] | Kd-2 (two-state model, second step, reverse rate) [4] [s⁻¹] | Substance | further results
1 | 25100 | 0.00166 | 47.2 | 0.00714 | 0.00533 | 25.2 | 7.29 | 16.2 | – | – | – | – | – | – | – | – | C3b (from UniProt P01024 749-1663; P01024 749-1663) (domain or fragment) | koff [2]: 0.000441 s⁻¹; kon [2]: 18200 M⁻¹ s⁻¹; koff [3]: 0.000125 s⁻¹; kon [3]: 17100 M⁻¹ s⁻¹; koff [4]: 0.000203 s⁻¹; kon [4]: 12600 M⁻¹ s⁻¹
2 | – | – | – | – | – | 2780 | – | 1130 | 12000 | 0.0052 | 0.0491 | 0.00928 | 14800 | 0.00262 | 0.0271 | 0.00414 | C3c (from UniProt P01024 23-667; P01024 749-954; P01024 1321-1663) (domain or fragment) | –
3 | 35800 | 0.00463 | 10.5 | 0.0168 | 0.000105 | 115 | 68 | 84.6 | 7100 | 0.00589 | 0.0209 | 0.000231 | 10600 | 0.00469 | 0.0191 | 0.000227 | iC3b (from UniProt P01024 23-667; P01024 1321-1663) (domain or fragment) | Ka-1 (two-state model, first step, association rate) [3]: 16000 M⁻¹ s⁻¹; Ka-2 (two-state model, second step, forward rate) [3]: 0.00376 s⁻¹; Kd-1 (two-state model, first step, dissociation rate) [3]: 0.0207 s⁻¹; Kd-2 (two-state model, second step, reverse rate) [3]: 0.000206 s⁻¹
